{
  "source": "paper PMC12416549",
  "about": "(2024)",
  "data": [
    {"target": "T1, TNFR1 (Homo sapiens, UniProt P19438)", "T1 chain": "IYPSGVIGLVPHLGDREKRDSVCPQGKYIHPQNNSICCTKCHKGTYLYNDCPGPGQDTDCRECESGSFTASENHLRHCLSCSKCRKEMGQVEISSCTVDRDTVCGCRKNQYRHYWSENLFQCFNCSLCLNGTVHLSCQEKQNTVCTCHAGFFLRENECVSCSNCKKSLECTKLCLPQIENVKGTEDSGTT", "assay": "yeast display SC50", "units": {"apparent Kd (screen)": "nM"}, "values": [
      {"binder": "A55Q (designed binder) SMEEEVEKAAKEYEKKKKEAIEKHLEKLKAKDKEAAERFLKELEEAAKEYAKDEQKTMSEEEAKRRAKKYKEKVLLSELSEEEQKEIKEAEEKLVRTILKYVEEAAK", "apparent Kd (screen)": 1.54},
      {"binder": "A9F (designed binder) SMEEEVEKFAKEYEKKKKEAIEKHLEKLKAKDKEAAERFLKELEEAAKEYAKDEAKTMSEEEAKRRAKKYKEKVLLSELSEEEQKEIKEAEEKLVRTILKYVEEAAK", "apparent Kd (screen)": 0.718},
      {"binder": "K68C (designed binder) SMEEEVEKAAKEYEKKKKEAIEKHLEKLKAKDKEAAERFLKELEEAAKEYAKDEAKTMSEEEAKRRACKYKEKVLLSELSEEEQKEIKEAEEKLVRTILKYVEEAAK", "apparent Kd (screen)": 3},
      {"binder": "R66Y (designed binder) SMEEEVEKAAKEYEKKKKEAIEKHLEKLKAKDKEAAERFLKELEEAAKEYAKDEAKTMSEEEAKRYAKKYKEKVLLSELSEEEQKEIKEAEEKLVRTILKYVEEAAK", "apparent Kd (screen)": 13.8},
      {"binder": "K29I (designed binder) SMEEEVEKAAKEYEKKKKEAIEKHLEKLIAKDKEAAERFLKELEEAAKEYAKDEAKTMSEEEAKRRAKKYKEKVLLSELSEEEQKEIKEAEEKLVRTILKYVEEAAK", "apparent Kd (screen)": 1.54},
      {"binder": "L75Q (designed binder) SMEEEVEKAAKEYEKKKKEAIEKHLEKLKAKDKEAAERFLKELEEAAKEYAKDEAKTMSEEEAKRRAKKYKEKVQLSELSEEEQKEIKEAEEKLVRTILKYVEEAAK", "apparent Kd (screen)": 0.49},
      {"binder": "A30E (designed binder) SMEEEVEKAAKEYEKKKKEAIEKHLEKLKEKDKEAAERFLKELEEAAKEYAKDEAKTMSEEEAKRRAKKYKEKVLLSELSEEEQKEIKEAEEKLVRTILKYVEEAAK", "apparent Kd (screen)": 0.277},
      {"binder": "E3W (designed binder) SMWEEVEKAAKEYEKKKKEAIEKHLEKLKAKDKEAAERFLKELEEAAKEYAKDEAKTMSEEEAKRRAKKYKEKVLLSELSEEEQKEIKEAEEKLVRTILKYVEEAAK", "apparent Kd (screen)": 22.2},
      {"binder": "D53A (designed binder) SMEEEVEKAAKEYEKKKKEAIEKHLEKLKAKDKEAAERFLKELEEAAKEYAKAEAKTMSEEEAKRRAKKYKEKVLLSELSEEEQKEIKEAEEKLVRTILKYVEEAAK", "apparent Kd (screen)": 1.27},
      {"binder": "K29Y (designed binder) SMEEEVEKAAKEYEKKKKEAIEKHLEKLYAKDKEAAERFLKELEEAAKEYAKDEAKTMSEEEAKRRAKKYKEKVLLSELSEEEQKEIKEAEEKLVRTILKYVEEAAK", "apparent Kd (screen)": 0.956},
      {"binder": "K16D (designed binder) SMEEEVEKAAKEYEKDKKEAIEKHLEKLKAKDKEAAERFLKELEEAAKEYAKDEAKTMSEEEAKRRAKKYKEKVLLSELSEEEQKEIKEAEEKLVRTILKYVEEAAK", "apparent Kd (screen)": 0.539},
      {"binder": "K17Y (designed binder) SMEEEVEKAAKEYEKKYKEAIEKHLEKLKAKDKEAAERFLKELEEAAKEYAKDEAKTMSEEEAKRRAKKYKEKVLLSELSEEEQKEIKEAEEKLVRTILKYVEEAAK", "apparent Kd (screen)": 0.446},
      {"binder": "T57F (designed binder) SMEEEVEKAAKEYEKKKKEAIEKHLEKLKAKDKEAAERFLKELEEAAKEYAKDEAKFMSEEEAKRRAKKYKEKVLLSELSEEEQKEIKEAEEKLVRTILKYVEEAAK", "apparent Kd (screen)": 0.0729},
      {"binder": "I21Q (designed binder) SMEEEVEKAAKEYEKKKKEAQEKHLEKLKAKDKEAAERFLKELEEAAKEYAKDEAKTMSEEEAKRRAKKYKEKVLLSELSEEEQKEIKEAEEKLVRTILKYVEEAAK", "apparent Kd (screen)": 0.49},
      {"binder": "E60I (designed binder) SMEEEVEKAAKEYEKKKKEAIEKHLEKLKAKDKEAAERFLKELEEAAKEYAKDEAKTMSIEEAKRRAKKYKEKVLLSELSEEEQKEIKEAEEKLVRTILKYVEEAAK", "apparent Kd (screen)": 0.49},
      {"binder": "K23D (designed binder) SMEEEVEKAAKEYEKKKKEAIEDHLEKLKAKDKEAAERFLKELEEAAKEYAKDEAKTMSEEEAKRRAKKYKEKVLLSELSEEEQKEIKEAEEKLVRTILKYVEEAAK", "apparent Kd (screen)": 0.49},
      {"binder": "K69T (designed binder) SMEEEVEKAAKEYEKKKKEAIEKHLEKLKAKDKEAAERFLKELEEAAKEYAKDEAKTMSEEEAKRRAKTYKEKVLLSELSEEEQKEIKEAEEKLVRTILKYVEEAAK", "apparent Kd (screen)": 2.05},
      {"binder": "E34D (designed binder) SMEEEVEKAAKEYEKKKKEAIEKHLEKLKAKDKDAAERFLKELEEAAKEYAKDEAKTMSEEEAKRRAKKYKEKVLLSELSEEEQKEIKEAEEKLVRTILKYVEEAAK", "apparent Kd (screen)": 0.718},
      {"binder": "K18A (designed binder) SMEEEVEKAAKEYEKKKAEAIEKHLEKLKAKDKEAAERFLKELEEAAKEYAKDEAKTMSEEEAKRRAKKYKEKVLLSELSEEEQKEIKEAEEKLVRTILKYVEEAAK", "apparent Kd (screen)": 0.79},
      {"binder": "T97C (designed binder) SMEEEVEKAAKEYEKKKKEAIEKHLEKLKAKDKEAAERFLKELEEAAKEYAKDEAKTMSEEEAKRRAKKYKEKVLLSELSEEEQKEIKEAEEKLVRCILKYVEEAAK", "apparent Kd (screen)": 0.79},
      {"binder": "E49G (designed binder) SMEEEVEKAAKEYEKKKKEAIEKHLEKLKAKDKEAAERFLKELEEAAKGYAKDEAKTMSEEEAKRRAKKYKEKVLLSELSEEEQKEIKEAEEKLVRTILKYVEEAAK", "apparent Kd (screen)": 9.41},
      {"binder": "A35Q (designed binder) SMEEEVEKAAKEYEKKKKEAIEKHLEKLKAKDKEQAERFLKELEEAAKEYAKDEAKTMSEEEAKRRAKKYKEKVLLSELSEEEQKEIKEAEEKLVRTILKYVEEAAK", "apparent Kd (screen)": 0.869},
      {"binder": "T57P (designed binder) SMEEEVEKAAKEYEKKKKEAIEKHLEKLKAKDKEAAERFLKELEEAAKEYAKDEAKPMSEEEAKRRAKKYKEKVLLSELSEEEQKEIKEAEEKLVRTILKYVEEAAK", "apparent Kd (screen)": 6.43},
      {"binder": "R65H (designed binder) SMEEEVEKAAKEYEKKKKEAIEKHLEKLKAKDKEAAERFLKELEEAAKEYAKDEAKTMSEEEAKHRAKKYKEKVLLSELSEEEQKEIKEAEEKLVRTILKYVEEAAK", "apparent Kd (screen)": 1.54},
      {"binder": "T57D (designed binder) SMEEEVEKAAKEYEKKKKEAIEKHLEKLKAKDKEAAERFLKELEEAAKEYAKDEAKDMSEEEAKRRAKKYKEKVLLSELSEEEQKEIKEAEEKLVRTILKYVEEAAK", "apparent Kd (screen)": 13.8},
      {"binder": "R65V (designed binder) SMEEEVEKAAKEYEKKKKEAIEKHLEKLKAKDKEAAERFLKELEEAAKEYAKDEAKTMSEEEAKVRAKKYKEKVLLSELSEEEQKEIKEAEEKLVRTILKYVEEAAK", "apparent Kd (screen)": 1.4},
      {"binder": "E78A (designed binder) SMEEEVEKAAKEYEKKKKEAIEKHLEKLKAKDKEAAERFLKELEEAAKEYAKDEAKTMSEEEAKRRAKKYKEKVLLSALSEEEQKEIKEAEEKLVRTILKYVEEAAK", "apparent Kd (screen)": 2.48},
      {"binder": "E14I (designed binder) SMEEEVEKAAKEYIKKKKEAIEKHLEKLKAKDKEAAERFLKELEEAAKEYAKDEAKTMSEEEAKRRAKKYKEKVLLSELSEEEQKEIKEAEEKLVRTILKYVEEAAK", "apparent Kd (screen)": 5.84},
      {"binder": "A67S (designed binder) SMEEEVEKAAKEYEKKKKEAIEKHLEKLKAKDKEAAERFLKELEEAAKEYAKDEAKTMSEEEAKRRSKKYKEKVLLSELSEEEQKEIKEAEEKLVRTILKYVEEAAK", "apparent Kd (screen)": 1.54},
      {"binder": "K64M (designed binder) SMEEEVEKAAKEYEKKKKEAIEKHLEKLKAKDKEAAERFLKELEEAAKEYAKDEAKTMSEEEAMRRAKKYKEKVLLSELSEEEQKEIKEAEEKLVRTILKYVEEAAK", "apparent Kd (screen)": 0.653},
      {"binder": "K15Q (designed binder) SMEEEVEKAAKEYEQKKKEAIEKHLEKLKAKDKEAAERFLKELEEAAKEYAKDEAKTMSEEEAKRRAKKYKEKVLLSELSEEEQKEIKEAEEKLVRTILKYVEEAAK", "apparent Kd (screen)": 0.956},
      {"binder": "E44C (designed binder) SMEEEVEKAAKEYEKKKKEAIEKHLEKLKAKDKEAAERFLKELCEAAKEYAKDEAKTMSEEEAKRRAKKYKEKVLLSELSEEEQKEIKEAEEKLVRTILKYVEEAAK", "apparent Kd (screen)": 0.446},
      {"binder": "E81S (designed binder) SMEEEVEKAAKEYEKKKKEAIEKHLEKLKAKDKEAAERFLKELEEAAKEYAKDEAKTMSEEEAKRRAKKYKEKVLLSELSSEEQKEIKEAEEKLVRTILKYVEEAAK", "apparent Kd (screen)": 0.79}
    ]}
  ]
}
